US11324804B2, “Combined CD6 and imipenem therapy for treatment of infectious diseases and related inflammatory processes” (Sepsia Therapeutics, S.L., priority 2016, dated 2022)

Experiments:
[1] = design: species or system C57BL/6J mice; conditions: mouse, in vivo, 1.25 mg/kg
Protocol: (§1) Plasma levels of rshCD6 were determined by sandwich ELISA, using unlabelled (161.8) and biotin-labelled (SPV-L14.2) anti-CD6 monoclonal antibodies (2 μg/mL, each) as capture and detection antisera, respectively. Serial dilutions of purified rshCD6 were used as a standard. Diluted or undiluted plasma samples were used for monitoring IL-6 (1:70; Mouse IL-6 ELISA Set, BD Bioscience-555240), TNF-α (1:10; Mouse TNF-α ELISA Set, BD Bioscience-558534), IL-10 (neat; Mouse IL-10 ELISA Set, BD Bioscience-555252), and IL-1β (neat; Mouse IL-1β ELISA Set, BD Bioscience-559603) levels by commercially available ELISA kits, following manufacturer's instructions. Plates were developed with horseradish peroxidase-labeled streptavidin (Roche Diagnostics) and TMB Substrate Reagent Set (BD OptEIA, BD Biosciences), and further measurement of optical density at 450 nm (OD450 nm).

[2] = test system: pro- (TNF-α, IL-1β, IL-6) and anti- (IL-10) inflammatory cytokines; experiment: ELISA of cytokine plasma levels post CLP-induced septic shock; format: in vivo, C57BL/6J mice
Protocol: as §1

[3] = test system: septic shock induced by G+ and G− bacterial endotoxins (LTA+PGN, and LPS) and whole alive bacteria (Staphylococcus aureus, Acinetobacter baumannii); conditions: prophylactic infusion; mouse models of septic shock; cited from earlier work
bacterial load = experiment: Bacterial load (cfu) post CLP-induced septic shock; format: in vivo, C57BL/6J mice
Protocol: Blood samples were taken from live mice by facial vein puncture at 4 h post-CLP. Peritoneal, spleen and kidney samples were obtained from euthanized mice at 20 h post-CLP. For peritoneal lavage, euthanized mice were i.p. infused with 3 mL cold PBS. After gently abdominal massaging for 5 min, the peritoneal fluid was collected taking care to avoid clogging by the fat tissue and not to damage internal organs. Blood-contaminated peritoneal samples were discarded. The collected peritoneal fluid was centrifuged (3500 rpm, 10 min at 4° C.) and the pellet resuspended in 200 μL PBS. Spleen (100 mg) and kidney (250 mg) homogenization was performed by pressing the organs with a syringe plunger through a 40 μm cell strainer in 3 mL cold PBS. The resulting homogenates were centrifuged (3500 rpm, 10 min at 4° C.) and pellets resuspended in 750 μL PBS. Serial dilutions of blood, peritoneal lavage, and spleen and kidney homogenates were prepared in sterile PBS for plating on agar with 5% sheep blood (Becton Dikinson, UK) at 37° C. overnight. Viable bacterial counts were expressed as colony-forming units (cfu) per mL or mg.

[4] = test system: CLP-induced polymicrobial septic shock; experiment: Mouse survival after cecal ligation and puncture (CLP)-induced septic shock
Protocol: CLP-induced septic shock was induced in 8-10 week old C57BL/6J male mice (20-25 g; Charles River) following previously reported methods (Rittirsch D, et al., 2009. Immunodesign of experimental sepsis by cecal ligation and puncture. Nat Protoc 4:31-36). The severity of the CLP model was adjusted to achieve a high-grade mortality (meaning ≥90% mortality in the first 48-72 h) by ligating 75% of cecum. Mice were anesthetized with 100 mg/kg ketamine (Imalgéne 1000, Merial) and 10 mg/kg xylazine (Rompun, Bayer) subsequently resuscitated with 1 mL saline serum intraperitoneally (i.p.). To mitigate pain effects, 0.05 mg/kg/12 h Buprenorphin was administered subcutaneously. […] Daily weight loss monitoring (usually was of 10-15% in the first 48 h post-CLP) allowed exclusion of animals not undergoing clinical sepsis.
The survival data were represented in Kaplan-Meier graphs and analysed by the Log-Rank χ^2 test. Statistical significant differences (P<0.01) were determined by 2-tailed non parametric Mann-Whitney test.

LPS-induced septic shock = conditions: intraperitoneal (i.p.) administration, mice; cited from earlier work
[5] = prophylactic (−1 h) 1.25 mg/kg i.p., +4 h, +20 h post-CLP, FIG. 1C
[6] = therapeutic (+1 h) 1.25 mg/kg i.p., 4 and 20 h post-CLP, FIG. 2C
[7] = prophylactic (−1 h) 1.25 mg/kg i.p., FIG. 1D
[8] = therapeutic (+1 h) 1.25 mg/kg i.p., FIG. 2D
[9] = single dose 1.25 mg/kg i.p. 1 h before (−1 h) CLP induction, FIG. 1A

B1: rshCD6: recombinantly obtained soluble human CD6 ectodomain (SEQ ID NO: 1) (protein, listed as Homo sapiens)
chain: DQLNTSSAESELWEPGERLPVRLTNGSSSCSGTVEVRLEASWEPACGALWDSRAAEAVCRALGCGGAEAASQLAPPTPELPPPPAAGNTSVAANATLAGAPALLCSGAEWRLCEVVEHACRSDGRRARVTCAENRALRLVDGGGACAGRVEMLEHGEWGSVCDDTWDLEDAHVVCRQLGCGWAVQALPGLHFTPGRGPIHRDQVNCSGAEAYLWDCPGLPGQHYCGHKEDAGVVCSEHQSWRLTGGADRCEGQVEVHFRGVWNTVCDSEWYPSEAKVLCQSLGCGTAVERPKGLPHSLSGRMYYSCNGEELTLSNCSWRFNNSNLCSQSLAARVLCSASRSLHNLSTPEVPASVQTVTIESSVTVKIENKESR
- maximal plasma levels achieved via i.v. versus via i.p. [1]: higher
- time of decrease to nearly basal plasma levels ([1]; ip): ≤ 6 h
- time of maximal rshCD6 plasma levels ([1]; ip): 3 h
- time of decline to nearly basal plasma levels ([1]; iv): ≤ 6 h
- time of maximal and sustained plasma levels ([1]; iv): 1 to 3 h
- plasma level of IL-1β compared to saline-treated group [2, 5]: significantly lowered
- plasma level of IL-6 compared to saline-treated group [2, 5]: significantly lowered
- plasma level of IL-10 compared to saline-treated group [2, 5]: higher levels
- plasma level of TNF-α compared to saline-treated group [2, 5]: significantly lowered
- plasma level of IL-1β compared with saline-treated group [2, 6]: lower pro-inflammatory cytokine levels, which reached statistical significance
- plasma level of IL-6 compared with saline-treated group [2, 6]: lower pro-inflammatory cytokine levels, which reached statistical significance
- plasma level of IL-10 compared with saline-treated group [2, 6]: no differences observed
- plasma level of TNF-α compared with saline-treated group [2, 6]: lower pro-inflammatory cytokine levels
- mortality [3]: significantly reduces
- serum levels of pro-inflammatory cytokines (IL-1β, IL-6 and TNF-α) [3]: significantly reduces
- bacterial load from blood compared to saline-treated group (bacterial load; [7]): lowered
- bacterial load from kidney compared to saline-treated group (bacterial load; [7]): lowered
- bacterial load from spleen compared to saline-treated group (bacterial load; [7]): lowered
- bacterial load (cfu) from blood with regard to saline-treated group (bacterial load; [8]): lower cfu
- bacterial load (cfu) from kidney with regard to saline-treated group (bacterial load; [8]): lower cfu
- bacterial load (cfu) from spleen with regard to saline-treated group (bacterial load; [8]): lower cfu
- prophylactic dose giving statistical significant results on survival ([4]; i.p. 1 h before CLP, FIG. 1B): above 0.625 mg/kg
- prophylactic dose reaching maximal efficacy on survival ([4]; i.p. 1 h before CLP, FIG. 1B): 2.5 mg/kg
- optimal rshCD6 dose in mice ([4]; mice): 1.25 to 2.50 mg/kg
- survival ([4]; repeated dosage 1.25 mg/kg i.p. at +1 h, +3 h and +6 h post-CLP, FIG. 2B): 26.32%
- survival [4, 9]: 47.06%
- survival ([4]; single dose 1.25 mg/kg i.v. at +1 h post-CLP, FIG. 3B): 30%
- survival ([4]; single dose 1.25 mg/kg i.v. at +3 h post-CLP, FIG. 3B): 20%
- survival ([4]; single dose 1.25 mg/kg i.v. at +6 h post-CLP, FIG. 3B): 40%
- survival ([4]; single infusion 1.25 mg/kg i.p. at +1 h post-CLP, FIG. 2A): 29.03%
- survival ([4]; single infusion 1.25 mg/kg i.p. at +3 h post-CLP, FIG. 2A): 14.28%
- survival ([4]; single infusion 1.25 mg/kg i.p. at +6 h post-CLP, FIG. 2A): 17.65%
- lethal effects caused by LPS-induced septic shock (LPS-induced septic shock): counteracts the lethal effects

B2: rshCD5: purified recombinant soluble human CD5 protein, used as comparison protein (protein, UniProt P06127 25-372, looked up)
extracellular domain: RLSWYDPDFQARLTRSNSKCQGQLEVYLKDGWHMVCSQSWGRSSKQWEDPSQASKVCQRLNCGVPLSLGPFLVTYTPQSSIICYGQLGSFSNCSHSRNDMCHSLGLTCLEPQKTTPPTTRPPPTTTPEPTAPPRLQLVAQSGGQHCAGVVEFYSGSLGGTISYEAQDKTQDLENFLCNNLQCGSFLKHLPETEAGRAQDPGEPREHQPLPIQWKIQNSSCTSLEHCFRKIKPQKSGRVLALLCSGFQPKVQSRLVGGSSICEGTVEVRQGAQWAALCDSSSARSSLRWEEVCREQQCGSVNSYRVLDAGDPTSRGLFCPHQKLSQCHELWERNSYCKKVFVTCQDPNP
modifications: extracellular domain
- survival [4, 9]: 11.11%
